Where a chain is given by its changes, count along the chain named. Values belong to the binder of their own block, whether it stands above or below them.
Assays:
[1] = molecular target: T1, mouse TREM2 on Expi 293 cells (mouse, UniProt Q99NH8 19-227); assay: flow cytometry on Expi 293 cells over-expressing mouse TREM2; Alexa Fluor 647 anti-Fc secondary
T1 construct: also called Expi-mTREM2; mTREM2
T1 sequence: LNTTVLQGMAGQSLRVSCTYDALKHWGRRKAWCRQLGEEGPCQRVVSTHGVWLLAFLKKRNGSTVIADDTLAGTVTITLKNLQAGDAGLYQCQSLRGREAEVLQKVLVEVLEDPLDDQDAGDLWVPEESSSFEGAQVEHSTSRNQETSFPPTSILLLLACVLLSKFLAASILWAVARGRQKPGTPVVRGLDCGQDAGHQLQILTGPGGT
Method: (§1) 100,000 to 500,000 Expi 293 parental cells or Expi 293 cells over-expressing human or mouse TREM2 were plated in 96 well plates and dead cells were stained with Zombie Near Infrared (Biolegend). Titrations of indicated unconjugated antibodies were incubated with these cells within a range of 0 ug/ml to 10 ug/ml in a 1:3 dilution range across 8-10 points. Dependent on their isotype (hIgG1 or mIgG2a), these primary unconjugated antibodies were detected with Alexa Fluor 647 conjugated anti-human Fc or anti-mouse Fc secondary antibodies (Jackson Immunoresearch). Alexa Fluor 647 signal was measured by flow cytometry (BD Fortessa X-14, BD Biosciences). EC50 values were calculated by curve fitting signal generated from antibodies binding to over-expressing cells over background fluorescence generated from HEK293 parental cells in Graphpad Prism (Graphpad Software).

[2] = molecular target: T2, human TREM2 His (Sino Biological) (human, UniProt Q9NZC2 19-174); assay: SPR, Biacore T200; TREM2-His captured on CM5 chip by anti-His, antibody injected; 1:1 Langmuir fit
T2 construct: Bought reagent; the soluble reagent is probably only the extracellular part; not shown: His tag
T2 sequence: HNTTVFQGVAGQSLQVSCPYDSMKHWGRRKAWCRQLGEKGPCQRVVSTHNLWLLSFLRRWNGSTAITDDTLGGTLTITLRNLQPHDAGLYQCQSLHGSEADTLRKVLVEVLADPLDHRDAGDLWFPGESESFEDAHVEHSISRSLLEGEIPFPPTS
Method: (§2) Binding kinetics were determined by surface plasmon resonance using a Biacore T200 (GE Healthcare, UK) with human TREM2 His (Sino Biological, Beijing, P.R.China) or […] captured on Series S CM5 chips through anti-His capture or TREM2 human IgG1 Fc fusion protein (in-house SEC purified to >95% purity) directly immobilized to chips by amine coupling. Serial dilutions of indicated antibodies were injected at 30 ul/minute for 2 minutes. PBS or system buffer was then injected at 30 ul/minute for 400 seconds to observe dissociation. Binding responses were corrected by subtraction of responses on a blank flow cell. For kinetic analysis, a 1:1 Langmuir model of global fittings of kₒₙ and koff values, was used. The Kd values were determined from the ratios of kₒₙ and koff.

[3] = molecular target: T3, human TREM2 on Expi 293 cells (human, UniProt Q9NZC2 19-230); assay: flow cytometry on Expi 293 cells over-expressing human TREM2; Alexa Fluor 647 anti-Fc secondary
T3 construct: also called Expi-hTREM2; hTREM2
T3 sequence: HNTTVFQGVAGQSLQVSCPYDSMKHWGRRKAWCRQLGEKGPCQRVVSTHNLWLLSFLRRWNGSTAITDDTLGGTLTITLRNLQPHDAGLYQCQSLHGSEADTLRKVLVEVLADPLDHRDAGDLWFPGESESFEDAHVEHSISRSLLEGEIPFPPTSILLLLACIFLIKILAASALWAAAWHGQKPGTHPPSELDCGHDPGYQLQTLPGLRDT
Method: as §1

[4] = molecular target: T4, TREM2 human IgG1 Fc fusion protein (human, UniProt Q9NZC2 19-174, limits assumed); assay: SPR, Biacore T200; TREM2-Fc amine-coupled to CM5 chip, antibody injected; 1:1 Langmuir fit
T4 construct: In-house, SEC purified to >95% purity; also called human TREM2-Fc; not shown: human IgG1 Fc
T4 sequence: T2 sequence
Method: as §2

B1: PI37012 (antibody, human IgG1, kappa, V domains shown)
VH: EVQLLESGGGLVQPGGSLRLSCAASGFTFSNYYMAWVRQAPGKGLEWVSSLTNSGGSTYYADSVKGRFTISRDNSKNTLYLQMNSLRAEDTAVYYCTREWAGSGYFDYWGQGTLVTVSS
VL: DIQMTQSPSSLSASVGDRVTITCKASQNVGNNLAWYQQKPGKAPKLLIYYTSNRFTGVPSRFSGSGSGTDFTLTISSLQPEDFATYYCQRIYNSPWTFGQGTKLEIKR
notes: Humanized anti-TREM2 antibody, human IgG1, produced in HEK293; also called 37012 antibody; PI37012 anti-TREM2 mAb
- EC50 [1]: 0.5 nM

B2: PI37013 (antibody, human IgG1, kappa, V domains shown)
VH: B1 VH
VL: B1 VL with I21M, I48L, L78V, I106L
notes: Humanized anti-TREM2 antibody, human IgG1
- Kd [2]: 4.82 nM
- koff [2]: 0.00549 s⁻¹
- kon [2]: 1.14e+06 M⁻¹ s⁻¹
- EC50 [3]: 1.4 nM
- EC50 [1]: 1.2 nM
- Kd [4]: 1.72 nM
- koff [4]: 0.000888 s⁻¹
- kon [4]: 517000 M⁻¹ s⁻¹

Next, values leading:

- Kd [2]: 4.74 nM
- koff [2]: 0.00243 s⁻¹
- kon [2]: 511000 M⁻¹ s⁻¹
- EC50 [3]: 1.4 nM
- Kd [4]: 1.55 nM
- koff [4]: 0.000732 s⁻¹
- kon [4]: 471000 M⁻¹ s⁻¹
B3: PI37014 (antibody, human IgG1, kappa, V domains shown)
VH: B1 VH with S49A, I70L
VL: B1 VL
notes: as for B2

- EC50 [3]: 23.3 nM
- EC50 [1]: 3.6 nM
- Kd [4]: 18 nM
- koff [4]: 0.00614 s⁻¹
- kon [4]: 340000 M⁻¹ s⁻¹
B4: PI37017 (antibody, human IgG1, kappa, V domains shown)
VH: B1 VH with T97A, R98K
VL: B1 VL
notes: Parent humanized clone, human IgG1; also called 37017 antibody
